A value given as a limit tells only on which side of the number the result lay.

This passage reports Cell fusion (IC90) and HIV infectivity (IC90) results from patent US6518013.

This assay concerns the target viral gp41 (HIV-1 transmembrane envelope protein) of HIV-1IIIB (HIV-1IIIB) (UniProt P04578). Nature of the assay: cell-based or functional assay.
“DP107 (synthetic peptide, residues 558 to 595 of HIV-1LAI gp41)” yielded a Cell fusion (IC90) of 1000 nM and an HIV infectivity (IC90) of 1000 nM.

Substance “DP178 (synthetic peptide, amino acids 638 to 673 of HIV-1LAI gp41)” registered a Cell fusion (IC90) of 1 nM and an HIV infectivity (IC90) of 80 nM.

“M41 (maltose binding protein fusion of the gp41 ectodomain, residues 540-686) (from UniProt P0AEX9 27-392; P03377 540-686)” registered a Cell fusion (IC90) of more than 50000 nM and an HIV infectivity (IC90) of more than 16000 nM.

“M41-P (M41 with an Ile to Pro mutation at position 578) (from UniProt P0AEX9 27-392; P03377 540-686)” showed a Cell fusion (IC90) of 83 nM and an HIV infectivity (IC90) of 66 nM.

“M41-PΔ178 (M41-P from which the DP-178 region has been deleted; gp41 residues 540-642 with Ile578Pro) (from UniProt P03377 540-642)”: the Cell fusion (IC90) was more than 50000 nM and the HIV infectivity (IC90) was more than 8000 nM.
